We go through six molecules from patent publication US20070148663A1 (TRUSTEES OF COLUMBIA UNIVERSITY IN THE CITY OF NEW YORK, published 2007).

B4: GST-EB1 (other, mouse, UniProt Q61166 1-268, looked up)
chain: MAVNVYSTSVTSDNLSRHDMLAWINESLQLNLTKIEQLCSGAAYCQFMDMLFPGSIALKKVKFQAKLEHEYIQNFKILQAGFKRMGVDKIIPVDKLVKGKFQDNFEFVQWFKKFFDANYDGKEYDPVAARQGQETAVAPSLVAPALSKPKKPLGSSTAAPQRPIATQRTTAAPKAGPGMVRKNPGVGNGDDEAAELMQQVKVLKLTVEDLEKERDFYFGKLRNIELICQENEGENDPVLQRIVDILYATDEGFVIPDEGGPQEEQEEY
notes: not shown: glutathione S-transferase (GST) tag, N-terminal, vector pGEX-2T
B5: GST-APC-C1 (amino acids 2674-2843) (other, UniProt P25054 2674-2843, looked up)
chain: SPTGNTPPVIDSVSEKANPNIKDSKDNQAKQNVGNGSVPMRTVGLENRLNSFIQVDAPDQKGTEIKPGQNNPVPVSETNESSIVERTPFSSSSSSKHSSPSGTVAARVTPFNYNPSPRKSSADSTSARPSQIPTPVNNNTKKRDSKTDSTESSGTQSPKRHSGSYLVTSV
notes: range 2674-2843; Gift from R. Baer; not shown: glutathione S-transferase (GST) tag

Assay [1] concerns the target T1, His-521-1040-mDia2 (purified recombinant protein) (UniProt Q9Z207 521-1040).
T1 construct: also called His-mDia; not shown: His tag of vector pQE-30 (detected with RGS-His antibody)
Nature of the assay: direct binding of purified recombinant proteins, GST pull-down, anti-His western blot. The source says:
(§1) Bound proteins were detected by western blotting with antibodies to Flag-mDia1, tubulin and actin. […] Bound His-mDia was detected by western blotting with an anti-His antibody. (e) Endogenous mDia1 and EB1 co-immunoprecipitate with APC. Mouse brain extracts and COS-7 cell lysates were immunoprecipitated with APC antibodies and precipitates analyzed for APC, mDia1 and EB1 by western blotting with the indicated antibodies. IgG, non-immune immunoglobulin G used for control immunoprecipitation. (f) Schematic representation of the interactions between mDia, EB1 and APC. EB1 and APC bind to mDia through different domains than they use to bind to each other. Note that although EB1 and APC bind to the FH1-FH2 region of mDia, the individual binding sites within this domain have not been mapped. The molecules are not drawn to scale.
mDia2 transcripts labeled with ³⁵S-methionine (Amersham Biosciences) were generated with Quick-Coupled Transcription/Translation Systems (Promega). […] After washing, bound proteins were eluted with SDS sample buffer and analyzed by SDS-PAGE. […] The treated lysates were incubated with GST-tagged constructs as described above and analyzed by western blotting with mouse anti-Flag-M2 antibody (1:10,000; Sigma), rabbit anti-tubulin10 (W2; 1:50,000) and mouse anti-actin (C4D6; 1:50,000). […] Bound proteins were analyzed by western blotting with mouse RGS-His antibody (1:10,000).

For assay [2], the target named is B5. As to the kind of experiment: GST pull-down from COS-7 lysates, anti-GFP western blot. An excerpt:
Residues of EB1 that were mutated to the indicated residues (below) are shaded in grey. (b) Diagram of GST-APC constructs used in this study. APC has a microtubule-binding site (labeled ‘Basic’) and a separate EB1-binding site in its C-terminus. (c) Pull-down analysis of wild type (WT) EB1-C-GFP and mutant EB1-C-GFPs by GST-APC-C1 and GST-p150^Glued (1-330). Western blots were probed with anti-GFP antibody. (d) The ability of EB1-C-GFP wild type (WT) and mutants to inhibit LPA-stimulated Glu-MTs in serum-starved 3T3 cells. All EB1-C-GFP constructs were expressed at equivalent levels on the basis of GFP fluorescence. Error bars represent the standard error from at least three independent experiments. (e) EB1-GFP and EB1-C-GFP interact with endogenous APC in cells. COS-7 cells were transiently transfected and immunoprecipitated as indicated. Western blots of the immunoprecipitates were probed with EB1 antibody. […] Cells expressing APC (untagged) were detected with antibody to APC. […]
For binding of wild-type and mutant EB1-C-GFP to APC or p150^Glued, COS-7 cells were transfected with EB1-C-GFP constructs and lysed in PBS containing 1% Triton X-100 and protease inhibitors. […] Bound proteins were analyzed by western blotting with rabbit anti-GFP (1:10,000; BD Transduction Laboratory). […] Bound proteins were eluted with SDS sample buffer and analyzed by western blotting for EB1.

For the next assay, the target named is T2, ΔGBDΔDADG(YEKR)-mDia2 (UniProt Q9Z207 258-1030, limits assumed, 35S-methionine label (in the binding assay)).
T2 construct: a GFP-myc-tagged form was expressed in 3T3 cells for the Glu-MT assay; also called G(YEKR) mutation
As to the kind of experiment: GST pull-down of 35S-labelled in vitro translated protein, autoradiography.
Text: as §1, with “EB1 and APC interact with mDia. (a) Binding of in vitro transcribed and translated ³⁵S-labelled ΔGBD-mDia2 to the indicated GST-tagged constructs of EB1 and APC (bottom). Arrows indicate full-length GST-APC-C or GST-APC-basic proteins. Additional bands detected in the GST-APC-C and GST-APC-basic lanes are presumed to be breakdown products. (b) Binding of in vitro transcribed and translated ³⁵S-labelled mDia2 fragments to GST-EB1, GST and GST-APC-C. (c) Binding of Flag-mDia1 expressed in COS-7 cells to GST-EB1 and GST-APC-C in the presence of DMSO, nocodazole (NZ) and latrunculin A (Lat A). Bound proteins” for “Bound proteins”
(§2) mDia2 transcripts labeled with ³⁵S-methionine (Amersham Biosciences) were generated with Quick-Coupled Transcription/Translation Systems (Promega). Equal molar amounts of GST, GST-EB1 or GST-APC on beads were incubated with labeled transcripts for 2 h at 4° C. in PBS containing 1% Triton X-100 and protease inhibitors. After washing, bound proteins were eluted with SDS sample buffer and analyzed by SDS-PAGE. Gels were incubated for 15-30 min in Amplify (Amersham Biosciences), dried and autoradiographed for 1-24 h. Flag-mDia1 (40) was transfected into COS-7 cells, lysates prepared and treated with 0.5 μM latrunculin A, 10 μM nocodazole or DMSO for 1 h on ice.

For assay [3], the target named is T3, mDia2 FH2 domain fragment, in vitro transcribed and translated, 35S-labelled (UniProt Q9Z207 615-1013, limits assumed, 35S-methionine label).
T3 construct: domain: FH2
Described as above.
Text: as §1, with “EB1 and APC interact with mDia. (a) Binding of in vitro transcribed and translated ³⁵S-labelled ΔGBD-mDia2 to the indicated GST-tagged constructs of EB1 and APC (bottom). Arrows indicate full-length GST-APC-C or GST-APC-basic proteins. Additional bands detected in the GST-APC-C and GST-APC-basic lanes are presumed to be breakdown products. (b) Binding of in vitro transcribed and translated ³⁵S-labelled mDia2 fragments to GST-EB1, GST and GST-APC-C. (c) Binding of Flag-mDia1 expressed in COS-7 cells to GST-EB1 and GST-APC-C in the presence of DMSO, nocodazole (NZ) and latrunculin A (Lat A). Bound proteins” for “Bound proteins”
as §2

Assay [4] has as its target T4, GST-APC-C (amino acids 2167-2843) (UniProt P25054 2167-2843).
T4 construct: range 2167-2843; Gift from R. Baer; not shown: glutathione S-transferase (GST) tag
The assay is described as above.
Text: as §1, with “EB1 and APC interact with mDia. (a) Binding of in vitro transcribed and translated ³⁵S-labelled ΔGBD-mDia2 to the indicated GST-tagged constructs of EB1 and APC (bottom). Arrows indicate full-length GST-APC-C or GST-APC-basic proteins. Additional bands detected in the GST-APC-C and GST-APC-basic lanes are presumed to be breakdown products. (b) Binding of in vitro transcribed and translated ³⁵S-labelled mDia2 fragments to GST-EB1, GST and GST-APC-C. (c) Binding of Flag-mDia1 expressed in COS-7 cells to GST-EB1 and GST-APC-C in the presence of DMSO, nocodazole (NZ) and latrunculin A (Lat A). Bound proteins” for “Bound proteins”
as §2

The target in the assay “GST-EB1” is B4. Described as above.
Text: as §1, with “EB1 and APC interact with mDia. (a) Binding of in vitro transcribed and translated ³⁵S-labelled ΔGBD-mDia2 to the indicated GST-tagged constructs of EB1 and APC (bottom). Arrows indicate full-length GST-APC-C or GST-APC-basic proteins. Additional bands detected in the GST-APC-C and GST-APC-basic lanes are presumed to be breakdown products. (b) Binding of in vitro transcribed and translated ³⁵S-labelled mDia2 fragments to GST-EB1, GST and GST-APC-C. (c) Binding of Flag-mDia1 expressed in COS-7 cells to GST-EB1 and GST-APC-C in the presence of DMSO, nocodazole (NZ) and latrunculin A (Lat A). Bound proteins” for “Bound proteins”
as §2

T1 sequence (Q9Z207 521-1040): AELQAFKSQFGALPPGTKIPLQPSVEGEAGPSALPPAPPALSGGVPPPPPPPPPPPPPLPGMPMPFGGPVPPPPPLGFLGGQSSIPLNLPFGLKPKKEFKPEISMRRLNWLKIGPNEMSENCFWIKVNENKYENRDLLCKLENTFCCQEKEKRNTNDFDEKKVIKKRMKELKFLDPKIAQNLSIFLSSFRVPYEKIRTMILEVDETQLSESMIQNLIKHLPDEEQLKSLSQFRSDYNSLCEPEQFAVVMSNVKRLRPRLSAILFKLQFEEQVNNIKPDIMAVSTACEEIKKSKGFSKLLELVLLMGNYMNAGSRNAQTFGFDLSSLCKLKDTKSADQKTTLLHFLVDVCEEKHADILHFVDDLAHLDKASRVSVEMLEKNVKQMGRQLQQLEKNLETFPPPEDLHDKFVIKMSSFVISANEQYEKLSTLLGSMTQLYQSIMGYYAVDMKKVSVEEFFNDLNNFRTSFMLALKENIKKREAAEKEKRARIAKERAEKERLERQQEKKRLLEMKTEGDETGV
T2 sequence (Q9Z207 other isoform, or with tags, fused parts or gaps mutant limits assumed): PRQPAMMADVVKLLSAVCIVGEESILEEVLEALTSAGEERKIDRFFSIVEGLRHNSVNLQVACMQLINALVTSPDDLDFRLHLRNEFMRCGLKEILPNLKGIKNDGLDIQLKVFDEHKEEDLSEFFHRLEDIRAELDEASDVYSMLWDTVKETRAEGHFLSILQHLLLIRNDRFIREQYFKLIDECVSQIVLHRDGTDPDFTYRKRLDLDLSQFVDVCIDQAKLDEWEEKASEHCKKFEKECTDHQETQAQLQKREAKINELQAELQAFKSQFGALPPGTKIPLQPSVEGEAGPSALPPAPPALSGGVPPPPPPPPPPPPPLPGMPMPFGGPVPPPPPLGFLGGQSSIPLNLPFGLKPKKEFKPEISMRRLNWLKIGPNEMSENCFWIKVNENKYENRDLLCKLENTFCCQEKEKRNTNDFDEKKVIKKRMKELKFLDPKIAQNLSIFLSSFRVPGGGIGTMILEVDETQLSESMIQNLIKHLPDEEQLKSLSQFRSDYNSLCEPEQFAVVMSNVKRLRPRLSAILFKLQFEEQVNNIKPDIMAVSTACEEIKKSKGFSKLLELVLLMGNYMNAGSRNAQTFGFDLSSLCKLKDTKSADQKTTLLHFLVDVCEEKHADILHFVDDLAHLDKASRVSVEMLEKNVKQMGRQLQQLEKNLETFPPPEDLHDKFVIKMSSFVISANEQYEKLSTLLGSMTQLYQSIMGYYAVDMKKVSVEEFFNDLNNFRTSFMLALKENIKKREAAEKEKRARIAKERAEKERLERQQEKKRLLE
T3 sequence (Q9Z207 615-1013 limits assumed): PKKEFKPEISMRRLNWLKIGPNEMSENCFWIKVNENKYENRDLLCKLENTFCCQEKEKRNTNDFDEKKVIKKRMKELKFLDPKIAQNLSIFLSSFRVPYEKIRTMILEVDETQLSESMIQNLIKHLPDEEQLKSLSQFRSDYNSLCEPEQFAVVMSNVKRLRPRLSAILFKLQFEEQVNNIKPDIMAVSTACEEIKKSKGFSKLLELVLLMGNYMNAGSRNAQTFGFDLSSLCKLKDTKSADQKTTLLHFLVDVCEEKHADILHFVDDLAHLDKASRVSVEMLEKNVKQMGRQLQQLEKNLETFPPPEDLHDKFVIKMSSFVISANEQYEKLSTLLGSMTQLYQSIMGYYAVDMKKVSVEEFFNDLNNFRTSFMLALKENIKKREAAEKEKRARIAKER

B1: GST-EB1-C (other, mouse, UniProt Q61166 165-268, looked up)
chain: ATQRTTAAPKAGPGMVRKNPGVGNGDDEAAELMQQVKVLKLTVEDLEKERDFYFGKLRNIELICQENEGENDPVLQRIVDILYATDEGFVIPDEGGPQEEQEEY
notes: range 165-268; also called glutathione S-transferase fused to EB1-C; not shown: glutathione S-transferase (GST) tag, N-terminal, vector pGEX-2T
For B1, the binding result in assay [1] was “no binding (tested: 0.3 µM)”.

B2: EB1-C-KR-GFP (other, mouse, UniProt Q61166 165-268, looked up)
chain: ATQRTTAAPKAGPGMVRKNPGVGNGDDEAAELMQQVKVLKLTVEDLEKERDFYFGALANIELICQENEGENDPVLQRIVDILYATDEGFVIPDEGGPQEEQEEY
notes: range 165-268; not shown: GFP tag (vector pGFP-NKB)
Regarding B2, the binding result in assay [2] is “no binding”.

B3: EB1-C-EEKR-GFP (other, mouse, UniProt Q61166 165-268, looked up)
chain: ATQRTTAAPKAGPGMVRKNPGVGNGDDEAAELMQQVKVLKLTVEDLAKARDFYFGALANIELICQENEGENDPVLQRIVDILYATDEGFVIPDEGGPQEEQEEY
notes: as for B2
As for B3, in assay [2], the binding result was “no binding”.

In the case of B4, the binding result (in the assay with ΔGBDΔDADG(YEKR)-mDia2; in assay [3]) was “no binding” in each case.

With B5, the binding result in assay [1] is “no binding (tested: 0.3 µM)”.

B6: mDia2 FH1 domain fragment, in vitro transcribed and translated, 35S-labelled (other, UniProt Q9Z207 540-610, looked up)
chain: PLQPSVEGEAGPSALPPAPPALSGGVPPPPPPPPPPPPPLPGMPMPFGGPVPPPPPLGFLGGQSSIPLNLP
modifications: 35S-methionine label
notes: domain: FH1
For B6, the binding result (in assay [4]; in the assay with GST-EB1) was “no binding” each time.
